Test results from patent US20030049259A1.

Target: E-cadherin (human) (UniProt P12830)
Assay: cell-based or functional assay

Sequence of UniProt P12830 (P12830 155-882): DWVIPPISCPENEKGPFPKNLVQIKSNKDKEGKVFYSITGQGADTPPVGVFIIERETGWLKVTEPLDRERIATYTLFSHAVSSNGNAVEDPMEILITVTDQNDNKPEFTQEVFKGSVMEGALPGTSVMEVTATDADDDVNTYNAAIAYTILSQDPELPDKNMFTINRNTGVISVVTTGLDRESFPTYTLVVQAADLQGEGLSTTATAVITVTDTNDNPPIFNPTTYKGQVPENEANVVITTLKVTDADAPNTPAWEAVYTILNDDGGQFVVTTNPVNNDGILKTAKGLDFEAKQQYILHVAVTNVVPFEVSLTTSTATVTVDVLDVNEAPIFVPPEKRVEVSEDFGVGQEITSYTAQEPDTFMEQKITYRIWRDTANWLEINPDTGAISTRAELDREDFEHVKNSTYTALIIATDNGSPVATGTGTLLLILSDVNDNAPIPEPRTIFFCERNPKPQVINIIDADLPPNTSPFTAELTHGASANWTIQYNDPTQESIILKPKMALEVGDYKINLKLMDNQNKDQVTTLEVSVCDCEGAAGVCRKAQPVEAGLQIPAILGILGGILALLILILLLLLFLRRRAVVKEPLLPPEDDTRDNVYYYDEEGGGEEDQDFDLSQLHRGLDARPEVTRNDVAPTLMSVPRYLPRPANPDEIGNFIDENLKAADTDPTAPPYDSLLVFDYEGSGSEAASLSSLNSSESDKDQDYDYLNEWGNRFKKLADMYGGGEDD

How did the blocking of ilEL binding to 16E6.A5 monolayers in 1 mM Ca2+, Mg2+ and Mn2+ (FIG. 3A) turn out when “E4.6 (mouse anti-human E-cadherin, IgG1) (antibody)” was run?
Its blocking of ilEL binding to 16E6.A5 monolayers in 1 mM Ca2+, Mg2+ and Mn2+ (FIG. 3A) is 55%.

What about the blocking of ilEL binding to 16E6.A5 monolayers in the absence of Ca2+ and Mn2+ (FIG. 3B) of the same substance?
The blocking of ilEL binding to 16E6.A5 monolayers in the absence of Ca2+ and Mn2+ (FIG. 3B) was 0%.
